Test results as given in doi:10.1101/2025.06.12.659326.

Target: dynein light intermediate chain 2 (LIC2)
Assay: anti-HA IP of LIC2-HA, GFP blot
Conditions: reference: GFP-WT OCLN; sites S490

Substance	other: reduction vs WT [%]
occludin (OCLN) (from UniProt Q16625) GFP-S490A	25
occludin (OCLN) (from UniProt Q16625) GFP-S490D	25
